Reference: publication PMC13623948, “Steric Gating Contributes to the Preferential Ubiquitin Charging of BIRC6 by UBA6 versus UBA1” (Nature Communications, 2026)

Molecular target: T1, human UBA6 (full-length, amino acid residues 1-1052) (human, UniProt A0AVT1 1-1052)
T1 construct: UBA6, human, Uniprot entry A0AVT1, full-length, residues 1-1052; The cloning methods name only the N-terminal 3×FLAG tag; the BLI methods say that His-tagged ligands were captured on anti-Penta-His sensors; also called UBA6^WT
T1 sequence (looked up): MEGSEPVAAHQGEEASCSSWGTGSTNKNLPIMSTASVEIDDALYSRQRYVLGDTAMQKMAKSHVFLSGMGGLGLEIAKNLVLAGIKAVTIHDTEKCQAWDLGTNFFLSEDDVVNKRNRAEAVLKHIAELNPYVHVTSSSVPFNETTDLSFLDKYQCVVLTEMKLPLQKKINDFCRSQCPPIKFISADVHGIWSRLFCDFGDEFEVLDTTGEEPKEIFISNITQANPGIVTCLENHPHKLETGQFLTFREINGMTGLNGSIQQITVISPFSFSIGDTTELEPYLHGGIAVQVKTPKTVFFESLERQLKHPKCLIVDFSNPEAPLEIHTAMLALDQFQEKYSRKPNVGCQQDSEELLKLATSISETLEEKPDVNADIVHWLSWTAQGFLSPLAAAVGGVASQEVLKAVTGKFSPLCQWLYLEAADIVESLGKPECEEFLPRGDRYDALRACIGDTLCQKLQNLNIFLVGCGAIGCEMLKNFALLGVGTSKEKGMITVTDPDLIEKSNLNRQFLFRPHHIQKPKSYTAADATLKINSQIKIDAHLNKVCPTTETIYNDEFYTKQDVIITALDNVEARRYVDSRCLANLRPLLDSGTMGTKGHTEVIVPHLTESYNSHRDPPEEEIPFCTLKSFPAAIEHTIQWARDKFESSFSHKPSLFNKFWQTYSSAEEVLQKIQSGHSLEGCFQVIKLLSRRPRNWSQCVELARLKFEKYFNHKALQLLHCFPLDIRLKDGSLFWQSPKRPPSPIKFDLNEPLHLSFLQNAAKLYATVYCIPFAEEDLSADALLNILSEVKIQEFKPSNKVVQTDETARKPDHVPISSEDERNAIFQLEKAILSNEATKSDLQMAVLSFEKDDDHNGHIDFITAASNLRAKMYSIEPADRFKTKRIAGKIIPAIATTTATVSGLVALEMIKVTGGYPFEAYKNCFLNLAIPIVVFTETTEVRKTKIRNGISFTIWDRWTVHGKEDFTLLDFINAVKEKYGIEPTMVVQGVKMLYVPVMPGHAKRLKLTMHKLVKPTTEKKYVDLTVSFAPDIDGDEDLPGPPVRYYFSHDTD
Assay: BLI; His-tagged E1 ligands on Anti-Penta-His (His1K) biosensors; analyte BIRC6^UBC or BIRC6^(UBCΔinsertion loop) at 40-3240 nM; 50 mM HEPES, pH 7.4, 150 mM NaCl, 0.05% Tween-20, 10 mM imidazole; 25 °C; steady-state 1:1 fit
Settings: both partners purified

Kd: 4.82 µM
B1: UBC domain of BIRC6 (residues 4520-4857) (domain or fragment)
chain: not shown
notes: BIRC6 UBC domain, human, Uniprot entry Q9NR09, residues 4520-4857; also called BIRC6^UBC; WT BIRC6^UBC; source: E. coli BL21 (DE3), purified (Ni-NTA, HRV 3C cleavage, SEC); not shown: His6, N-terminal, cleaved
